Biological target: T1, soluble human CD3ε chain (human, UniProt P07766 23-126, limits assumed)
T1 construct: also called human CD3 epsilon chain
Test: SPR (Biacore), soluble human CD3ε chain

T1 sequence (P07766 23-126 limits assumed): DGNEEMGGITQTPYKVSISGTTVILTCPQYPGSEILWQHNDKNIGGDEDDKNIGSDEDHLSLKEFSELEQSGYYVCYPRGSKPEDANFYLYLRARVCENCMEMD

Kd | Binder
85.2 nM | rCE115H-E22Hh/none-Hi-Kn010G3/L0000vk1-k0 (antibody, human IgG1, kappa, L234A L235A, N297A, one-arm antibody (single Fab) with Fab-less hinge-Fc chain Hi-Kn010G3) heavy: EVQLVETGGSLVQPGKSLKLTCATSGFTFSNAWMHWVRQSPEKQLEWVAQIKAKSNNYATYYAESVKGRFTISRDDSKSNIYLQMNSLKEEDTAVYYCRYVHYGAYYGVDAWGQGTSVTVSSASTKGPSVFPLAPSSKSTSGGTAALGCLVKDYFPEPVTVSWNSGALTSGVHTFPAVLQSSGLYSLSSVVTVPSSSLGTQTYICNVNHKPSNTKVDKKVEPKSCDKTHTCPPCPAPEAAGGPSVFLFPPKPKDTLMISRTPEVTCVVVDVSHEDPEVKFNWYVDGVEVHNAKTKPREEQYASTYRVVSVLTVLHQDWLNGKEYKCKVSNKALPAPIEKTISKAKGQPREPQVYTLPPSRCELTKNQVSLSCAVKGFYPSDIAVEWESNGQPENNYKTTPPVLDSDGSFFLVSKLTVDKSRWQQGNVFSCSVMHEALHNHYTQKSLSLSPDYKDDDDK EPKSSDKTHTCPPCPAPELLGGPSVFLFPPKPKDTLMISRTPEVTCVVVDVSHEDPEVKFNWYVDGVEVHNAKTKPREEQYNSTYRVVSVLTVLHQDWLNGKEYKCKVSNKALPAPIEKTISKAKGQPREPQVCTLPPSRDELTKNQVSLWCLVKGFYPSDIAVEWESNGQPENNYKTTPPVLDSDGSFFLYSKLTVDKSRWQQGNVFSCSVMHEALHNRYTQKSLSLSP light: DIQMTQSPSSLSASVGDRVTITCRSSQSLVHSNRNTYLHWYQQKPGKAPKLLIYKVSNRFSGVPSRFSGSGSGTDFTFTISSLQPEDIATYYCGQGTQVPYTFGQGTKVEIKRTVAAPSVFIFPPSDEQLKSGTASVVCLLNNFYPREAKVQWKVDNALQSGNSQESVTEQDSKDSTYSLSSTLTLSKADYEKHKVYACEVTHQGLSSPVTKSFNRGEC
93 nM | TR01H015-E22Hh/none-Hi-Kn010G3/TR01L006-k0 (antibody, human IgG1, kappa, L234A L235A, N297A, one-arm antibody (single Fab) with Fab-less hinge-Fc chain Hi-Kn010G3) heavy: QVQLVESGGGLVQPGRSLRLSCAASGFTFSNAWMHWVRQAPGKGLEWVAQIKGKSNNYATYYAESVKGRFTISRADSKNSIYLQMNSLKTEDTAVYYCRYVHYSASYGVDIWGQGTTVTVSSASTKGPSVFPLAPSSKSTSGGTAALGCLVKDYFPEPVTVSWNSGALTSGVHTFPAVLQSSGLYSLSSVVTVPSSSLGTQTYICNVNHKPSNTKVDKKVEPKSCDKTHTCPPCPAPEAAGGPSVFLFPPKPKDTLMISRTPEVTCVVVDVSHEDPEVKFNWYVDGVEVHNAKTKPREEQYASTYRVVSVLTVLHQDWLNGKEYKCKVSNKALPAPIEKTISKAKGQPREPQVYTLPPSRCELTKNQVSLSCAVKGFYPSDIAVEWESNGQPENNYKTTPPVLDSDGSFFLVSKLTVDKSRWQQGNVFSCSVMHEALHNHYTQKSLSLSPDYKDDDDK EPKSSDKTHTCPPCPAPELLGGPSVFLFPPKPKDTLMISRTPEVTCVVVDVSHEDPEVKFNWYVDGVEVHNAKTKPREEQYNSTYRVVSVLTVLHQDWLNGKEYKCKVSNKALPAPIEKTISKAKGQPREPQVCTLPPSRDELTKNQVSLWCLVKGFYPSDIAVEWESNGQPENNYKTTPPVLDSDGSFFLYSKLTVDKSRWQQGNVFSCSVMHEALHNRYTQKSLSLSP light: DIVMTQSPLSLPVTPGEPASISCQASESLVHSNRNTYLHWYLQKPGQSPQLLIYKVSNRFSGVPDRFSGSGSGTDFTLKISRVEAEDVGVYYCGQGTQVPYTFGQGTKVEIERTVAAPSVFIFPPSDEQLKSGTASVVCLLNNFYPREAKVQWKVDNALQSGNSQESVTEQDSKDSTYSLSSTLTLSKADYEKHKVYACEVTHQGLSSPVTKSFNRGEC
